This is an account of results in the supplement of paper PMC10567573.

± gives the standard deviation.

The data set is described as follows: protein stability index of a GFP-peptide fusion (GPS, HEK-293T) (PSI 1-6); higher = more stable. The note with it: c terminus: a fixed tail appended.
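Also: 24-mer peptide tiles fused after GFP, lentivirally expressed, FACS-sorted into six equal bins by GFP/DsRed ratio, decoded by Illumina sequencing, PSI is the read-weighted mean bin number.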

For RENGNNSSDKVRGIETLESVPIIG [PHTF1], the protein stability index (treatment: DMSO) was 4.8 ± 0.33 and the protein stability index (treatment: MLN4924 1 uM, 8 h) was found to be 4.53 ± 0.36.

With RESCPPLGLETLKITDFQLHASTV [CPXM2], the protein stability index (treatment: DMSO) came to 3.29 ± 0.15 and the protein stability index (treatment: MLN4924 1 uM, 8 h) worked out at 3.32 ± 0.14.

Take REVRRAQARLLNPSATRAKPGPQD [NOP53]: the protein stability index is, setting by setting: (treatment: DMSO) 4.75 ± 0.28; (treatment: MLN4924 1 uM, 8 h) 4.66 ± 0.14.

With RGIFVVRGENVVLLGEIDLEKESD [LSM1], the protein stability index by setting is: (treatment: DMSO) 2.37 ± 0.23; (treatment: MLN4924 1 uM, 8 h) 2.31 ± 0.52.

For RGKKLMVLTEPILIETYTGLMSFI [TPRG1], the protein stability index runs as follows: (treatment: DMSO) 2.95 ± 0.34; (treatment: MLN4924 1 uM, 8 h) 2.6 ± 0.48.

RGPPRGLRGGRGGSGGTRGPPSRG [RBMX]: the protein stability index is, setting by setting: (treatment: DMSO) 5.18 ± 0.2; (treatment: MLN4924 1 uM, 8 h) 4.92 ± 0.33.

Regarding RHDVIVSIVTAAKKDILLVNDHLL [PDS5B], the protein stability index runs as follows: (treatment: DMSO) 2.51 ± 0.31; (treatment: MLN4924 1 uM, 8 h) 2.29 ± 0.5.

On to RHSISMPAMRNSPTFKSFEERVET [TPD52L1], for which the protein stability index runs as follows: (treatment: DMSO) 4.66 ± 0.18; (treatment: MLN4924 1 uM, 8 h) 4.75 ± 0.42.

RIHTEEKPYKCQQCDKRFRWSSDL [ZNF75A] gave a protein stability index (treatment: DMSO) of 3 ± 0.2 and a protein stability index (treatment: MLN4924 1 uM, 8 h) of 2.94 ± 0.091.

Take RISNPSDDNSCEDLEEERREEEEK [PCMTD2]: the protein stability index reads like this: (treatment: DMSO) 5.59 ± 0.099; (treatment: MLN4924 1 uM, 8 h) 5.704 ± 0.05.

For the sequence RKLLEGEESRISVPVHSFASLNIK [PRPH], the protein stability index was found to be 2.96 ± 0.23 (treatment: DMSO) and 3.31 ± 0.41 (treatment: MLN4924 1 uM, 8 h).

Turning to RKRIRTYLKSCRRMKKNGMEMTRP [NOL4L], the protein stability index stood at 3.28 ± 0.21 (treatment: DMSO) and 3.32 ± 0.22 (treatment: MLN4924 1 uM, 8 h).

As for RKRRLFCTMEPEPVQPGMLIDVCK [TRIM35], the protein stability index was 2.6 ± 0.41 (treatment: DMSO) and 2.69 ± 0.12 (treatment: MLN4924 1 uM, 8 h).

As for RKVCVGGKRRKDEISVDSLDFSKK [PPP2R2B], the protein stability index is, setting by setting: (treatment: DMSO) 4.33 ± 0.26; (treatment: MLN4924 1 uM, 8 h) 4.31 ± 0.27.

On to RKWHKASNYIFVAIFWIVFLLLIV [P2RY14], for which the protein stability index (treatment: DMSO) was 3.34 ± 0.35 and the protein stability index (treatment: MLN4924 1 uM, 8 h) came out at 3.43 ± 0.17.

In turn, RLDLAAVTLRRGLRSRASRCRPRS [FAM189A2] came in with a protein stability index (treatment: DMSO) of 3.7 ± 0.15 and a protein stability index (treatment: MLN4924 1 uM, 8 h) of 3.89 ± 0.32.

On to RLLQASGGGLTGVSGSHFVGVDGV [PCDHGA10], for which the protein stability index reads like this: (treatment: DMSO) 2.78 ± 0.46; (treatment: MLN4924 1 uM, 8 h) 3.01 ± 0.28.

In the case of RLMDVCATSRTDREIKVTLVFEHV [CDK4], the protein stability index was determined as 2.65 ± 0.57 (treatment: DMSO) and 2.5 ± 0.15 (treatment: MLN4924 1 uM, 8 h).

With RMGDADYLAAWHRLVLPIAYEFNP [HDAC6], the protein stability index was determined as 2.27 ± 0.56 (treatment: DMSO) and 2.3 ± 0.44 (treatment: MLN4924 1 uM, 8 h).

For the sequence RMIPGQPPASARRLSVPRDSACDE [IRX6], the protein stability index by setting is: (treatment: DMSO) 5.29 ± 0.24; (treatment: MLN4924 1 uM, 8 h) 5.29 ± 0.15.

Regarding RMKKNGMEMTRPTPPHLTSAMAEN [NOL4L], the protein stability index worked out at 4.41 ± 0.071 (treatment: DMSO) and 4.37 ± 0.29 (treatment: MLN4924 1 uM, 8 h).

On to RMQYAPDLMKRLRFALIPAPELVE [KLHL14], for which the protein stability index was determined as 2.25 ± 0.1 (treatment: DMSO) and 2.05 ± 0.088 (treatment: MLN4924 1 uM, 8 h).

With RNKESPVFAPVYFPEELHRKAALE [HMOX1], the protein stability index was determined as 4.11 ± 0.4 (treatment: DMSO) and 4.147 ± 0.023 (treatment: MLN4924 1 uM, 8 h).

As for RPISGTAVAHKTPRCPGSVNEKLP [SMOC2], the protein stability index is 4.53 ± 0.14 (treatment: DMSO) and 4.59 ± 0.26 (treatment: MLN4924 1 uM, 8 h).

RPNDDSLAFLDKIKSVKESLQESV [IQUB] returned a protein stability index (treatment: DMSO) of 3.64 ± 0.034 and a protein stability index (treatment: MLN4924 1 uM, 8 h) of 3.34 ± 0.32.

RRRVPVRNLGKVVHYAKVQLRFQH [PLEKHN1] returned a protein stability index (treatment: DMSO) of 2.35 ± 0.39 and a protein stability index (treatment: MLN4924 1 uM, 8 h) of 2.29 ± 0.25.

As to RRSNSPDKFKRPTPPPSPNTQTPV [CCDC6], the protein stability index was found to be 5.27 ± 0.19 (treatment: DMSO) and 5.25 ± 0.16 (treatment: MLN4924 1 uM, 8 h).

With RRWHKSRLLQASGGGLTGVSGSHF [PCDHGA10], the protein stability index amounted to 2.67 ± 0.21 (treatment: DMSO) and 2.83 ± 0.16 (treatment: MLN4924 1 uM, 8 h).

For the sequence RSIRQYYKKGIIRKPDISQRLVYQ [SPDEF], the protein stability index by setting is: (treatment: DMSO) 2.84 ± 0.24; (treatment: MLN4924 1 uM, 8 h) 2.97 ± 0.42.

As for RSLFIDRTIVKGYNENVYTEDGKL [MED27], the protein stability index is 4.07 ± 0.25 (treatment: DMSO) and 4.12 ± 0.21 (treatment: MLN4924 1 uM, 8 h).

In the case of RSPTLEPPRGRSEAPDSLNGPLGP [SMG5], the protein stability index came out at 4.89 ± 0.26 (treatment: DMSO) and 4.77 ± 0.055 (treatment: MLN4924 1 uM, 8 h).

As to RTLSLIVCTFTYLLVGAAVFDALE [KCNK9], the protein stability index is, setting by setting: (treatment: DMSO) 2.82 ± 0.7; (treatment: MLN4924 1 uM, 8 h) 3.19 ± 0.81.

On to RTNDGKITYPPGVKEISDKISKEE [PDS5B], for which the protein stability index reads like this: (treatment: DMSO) 5.02 ± 0.19; (treatment: MLN4924 1 uM, 8 h) 5.197 ± 0.006.

In turn, RTNLPIFKLKESCVRRRYSDFEWL [SNX12] showed a protein stability index (treatment: DMSO) of 2.27 ± 0.29 and a protein stability index (treatment: MLN4924 1 uM, 8 h) of 2.74 ± 0.56.

For RTTSVRCRGIPRGPVRPAIPPPLS [NEK8], the protein stability index by setting is: (treatment: DMSO) 3.37 ± 0.1; (treatment: MLN4924 1 uM, 8 h) 3.64 ± 0.23.

With RTYKQRFLFAKLFSHITSARKARK [PHTF1], the protein stability index by setting is: (treatment: DMSO) 2.17 ± 0.14; (treatment: MLN4924 1 uM, 8 h) 2.55 ± 0.58.
